Assay results: PMC11612176 (The EMBO Journal, 2024)
Where two headings read alike, the source gives them in different places.

Assays:
ComM = target: T1, ComM (Legionella pneumophila, UniProt A0A3A6V972); details: 5 mM AMPPNP, dsDNA/ssDNA hybrid, pH 8.0, 37 °C incubation; active site at interface between adjacent subunits
T1 construct: gene yifB

[1] = target: ComM from L. pneumophila fused to a C-terminal His6-tag (Legionella pneumophila) (UniProt Q5ZXZ0); test: cryo-EM structure
[2] = target: ComM from L. pneumophila fused to a C-terminal His6-tag (Legionella pneumophila) (UniProt Q5ZXZ0); test: cryo-EM structure; remark: listed apart in the source
[3] = target: RadA R301A mutant from S. pneumoniae (Streptococcus pneumoniae) (UniProt Q8DRP0); test: not stated; oligomeric state of RadA as purified for the biochemical assays
[4] = target: RadA from S. pneumoniae (Strep-tagged, for cryoEM) (Streptococcus pneumoniae) (UniProt Q8DRP0); test: cryo-EM structure; 7 uM RadA with 10 uM gapped hybrid DNA (combination CD) and 5 mM ATP-gamma-S, 30 min at 37 °C; Hepes 50 mM pH 8.0, NaCl 100 mM

Question: How did the “cryoEM structure, 3.1 Å” value (ComM) turn out when `Nc1ncnc2c1ncn2[C@@H]1O[C@H](COP(=O)(O)OP(=O)(O)NP(=O)(O)O)[C@@H](O)[C@H]1O` [AMPPNP] was run?
Answer: AMPPNP, which is located at the interface between two adjacent subunits

Question: How did the stoichiometry N [1] turn out when “ComM from L. pneumophila fused to a C-terminal His6-tag (from UniProt Q5ZXZ0 1-503) (enzyme)” was run?
Answer: 6

Question: What about the stoichiometry N [2] of the same compound?
Answer: 12

Question: How did the stoichiometry N [3] turn out when “RadA R301A mutant from S. pneumoniae (from UniProt Q8DRP0) (enzyme)” was run?
Answer: 6

Question: “RadA from S. pneumoniae (Strep-tagged, for cryoEM) (from UniProt Q8DRP0 1-420) (enzyme)” was tested. Which stoichiometry N [4] did it give?
Answer: 6
